Assay results: patent US20210246166A1 (Bayer, published 2021)
Bridge positions count the residues as written; N and C are the ends. Square brackets hold non-standard residues; d marks the D form. Ends that are not written are not given here. * marks the point of attachment. Oic = O=C(O)[C@@H]1C[C@@H]2CCCC[C@@H]2N1; Butanoyl(3,3-Me2) = CC(C)(C)CC(=O)*; aIle = CC[C@@H](C)[C@H](N)C(=O)O; tBuAla = CC(C)(C)C[C@H](N)C(=O)O; Abu(4-CN) = N#CCC[C@H](N)C(=O)O; Aad = N[C@@H](CCCC(=O)O)C(=O)O; Pen = CC(C)(S)[C@H](N)C(=O)O; Phg = N[C@H](C(=O)O)c1ccccc1; Tranexamic = tranexamic acid; NMeC = CN[C@@H](CS)C(=O)O; PEG2 = NCCOCCOCCC(=O)O; Sar = CNCC(=O)O

T1: recombinant human MASP1 active protease (amino acids 297-699, C-terminal His Tag) (human, UniProt P48740 297-699)
T1 sequence: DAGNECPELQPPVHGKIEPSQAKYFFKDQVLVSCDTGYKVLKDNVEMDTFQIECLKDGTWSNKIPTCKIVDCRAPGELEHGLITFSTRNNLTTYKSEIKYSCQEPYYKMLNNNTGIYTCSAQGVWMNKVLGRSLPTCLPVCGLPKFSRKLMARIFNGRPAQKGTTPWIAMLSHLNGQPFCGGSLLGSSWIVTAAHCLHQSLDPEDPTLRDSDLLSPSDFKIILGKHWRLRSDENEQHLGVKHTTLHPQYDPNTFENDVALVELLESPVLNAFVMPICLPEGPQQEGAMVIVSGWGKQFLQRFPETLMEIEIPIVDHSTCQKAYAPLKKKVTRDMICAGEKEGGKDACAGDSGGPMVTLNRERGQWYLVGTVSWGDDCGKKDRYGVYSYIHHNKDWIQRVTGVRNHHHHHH


Key:
[1] = target: T1, recombinant human MASP1 active protease …; assay: cell-based or functional assay
[2] = target: recombinant human MASP2 active protease (amino acids 297-686, C-terminal His Tag) (human, UniProt O00187 297-686); assay: cell-based or functional assay
recombinant human MASP2 active protease (amino acids 297-686, C-terminal His Tag), sequence (O00187 other isoform, or with tags, fused parts or gaps limits assumed): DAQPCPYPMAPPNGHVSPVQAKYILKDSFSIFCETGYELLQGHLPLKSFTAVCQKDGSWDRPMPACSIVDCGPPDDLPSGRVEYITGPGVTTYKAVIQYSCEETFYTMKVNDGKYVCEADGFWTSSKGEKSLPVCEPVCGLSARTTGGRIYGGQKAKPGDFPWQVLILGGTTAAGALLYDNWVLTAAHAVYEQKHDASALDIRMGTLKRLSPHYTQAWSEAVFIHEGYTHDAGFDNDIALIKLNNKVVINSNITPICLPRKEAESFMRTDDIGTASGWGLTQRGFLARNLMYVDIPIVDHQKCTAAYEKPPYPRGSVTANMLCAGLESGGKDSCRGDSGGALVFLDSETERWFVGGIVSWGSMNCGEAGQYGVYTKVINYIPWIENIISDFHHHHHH

| Binder | human MASP1 IC50 [1] [nM] | human MASP2 IC50 [2] [nM] |
| --- | --- | --- |
| [PEG2]AICSRS[tBuAla]PPI[Pen]IPD-NH2 (disulfide 4-12; N-terminus assumed; SMILES CC[C@H](C)[C@H](NC(=O)[C@H](C)NC(=O)CCOCCOCCN)C(=O)N[C@H]1CSSC(C)(C)[C@@H](C(=O)N[C@H](C(=O)N2CCC[C@H]2C(=O)N[C@@H](CC(=O)O)C(N)=O)[C@@H](C)CC)NC(=O)[C@H]([C@@H](C)CC)NC(=O)[C@@H]2CCCN2C(=O)[C@@H]2CCCN2C(=O)[C@H](CC(C)(C)C)NC(=O)[C@H](CO)NC(=O)[C@H](CCCNC(=N)N)NC(=O)[C@H](CO)NC1=O) [Example 320: (PEG1(10 atoms))-AIC+SRS-((tBu)A)-PPI-(Pen)+IPD-NH2] | 22 | 190 |
| ICSRS[tBuAla]PPI[Pen]IP-NH2 (disulfide 2-10; N-terminus assumed; SMILES CC[C@H](C)[C@H](N)C(=O)N[C@H]1CSSC(C)(C)[C@@H](C(=O)N[C@H](C(=O)N2CCC[C@H]2C(N)=O)[C@@H](C)CC)NC(=O)[C@H]([C@@H](C)CC)NC(=O)[C@@H]2CCCN2C(=O)[C@@H]2CCCN2C(=O)[C@H](CC(C)(C)C)NC(=O)[C@H](CO)NC(=O)[C@H](CCCNC(=N)N)NC(=O)[C@H](CO)NC1=O) [Example 316: IC+SRS-((tBu)A)-PPI-(Pen)+IP-NH2] | 21 | 660 |
| [Sar]ICSRS[Abu(4-CN)]PPI[Pen]IPD-NH2 (disulfide 3-11; N-terminus assumed; SMILES CC[C@H](C)[C@H](NC(=O)CNC)C(=O)N[C@H]1CSSC(C)(C)[C@@H](C(=O)N[C@H](C(=O)N2CCC[C@H]2C(=O)N[C@@H](CC(=O)O)C(N)=O)[C@@H](C)CC)NC(=O)[C@H]([C@@H](C)CC)NC(=O)[C@@H]2CCCN2C(=O)[C@@H]2CCCN2C(=O)[C@H](CCC#N)NC(=O)[C@H](CO)NC(=O)[C@H](CCCNC(=N)N)NC(=O)[C@H](CO)NC1=O) [Example 321: ((N-Me)G)-IC+SRS-(Cnba)-PPI-(Pen)+IPD-NH2] | 22 | 1800 |
| [Sar]ICSRSLPPICID-NH2 (disulfide 3-11; N-terminus assumed; SMILES CC[C@H](C)[C@H](NC(=O)CNC)C(=O)N[C@H]1CSSC[C@@H](C(=O)N[C@H](C(=O)N[C@@H](CC(=O)O)C(N)=O)[C@@H](C)CC)NC(=O)[C@H]([C@@H](C)CC)NC(=O)[C@@H]2CCCN2C(=O)[C@@H]2CCCN2C(=O)[C@H](CC(C)C)NC(=O)[C@H](CO)NC(=O)[C@H](CCCNC(=N)N)NC(=O)[C@H](CO)NC1=O) [Example 317: ((N-Me)G)-IC+SRSLPPIC+ID-NH2] | 22 | 210 |
| AICSRS[Aad]PPI[NMeC]IPD-NH2 (disulfide 3-11; N-terminus assumed; SMILES CC[C@H](C)[C@H](NC(=O)[C@H](C)N)C(=O)N[C@H]1CSSC[C@@H](C(=O)N[C@H](C(=O)N2CCC[C@H]2C(=O)N[C@@H](CC(=O)O)C(N)=O)[C@@H](C)CC)N(C)C(=O)[C@H]([C@@H](C)CC)NC(=O)[C@@H]2CCCN2C(=O)[C@@H]2CCCN2C(=O)[C@H](CCCC(=O)O)NC(=O)[C@H](CO)NC(=O)[C@H](CCCNC(=N)N)NC(=O)[C@H](CO)NC1=O) [Example 314: AIC+SRS-(AAD)-PP-I-((N-Me)C)+IPD-NH2] | 21 | 260 |
| [Sar]ICSRSLPPIC[Phg]PD-OH (disulfide 3-11; N-terminus assumed; SMILES CC[C@H](C)[C@H](NC(=O)CNC)C(=O)N[C@H]1CSSC[C@@H](C(=O)N[C@H](C(=O)N2CCC[C@H]2C(=O)N[C@@H](CC(=O)O)C(=O)O)c2ccccc2)NC(=O)[C@H]([C@@H](C)CC)NC(=O)[C@@H]2CCCN2C(=O)[C@@H]2CCCN2C(=O)[C@H](CC(C)C)NC(=O)[C@H](CO)NC(=O)[C@H](CCCNC(=N)N)NC(=O)[C@H](CO)NC1=O) [Example 325: ((N-Me)G)-IC+SRSLPPIC+(Phg)-PD-OH] | 23 | 450 |
| AICSRSLP[3,3‑dimethyl‑1,3‑azasilolidine‑5‑carboxylic acid]ICIPD-NH2 (disulfide 3-11) [Example 326: AIC+SRSLP-(3,3-dimethyl-1,3-azasilolidine-5-carboxylic acid)-IC+IPD-NH2] | 23 | 710 |
| [Tranexamic]ICSRS[tBuAla]PPI[NMeC]IPD-NH2 (disulfide 3-11) [Example 319: (Tranexamic)-IC+SRS-((tBu)A)-PPI-((N-Me)C)+IPD-NH2] | 22 | 18 |
| [Sar]ICSRSLPPICIPD-OH (disulfide 3-11; also: HCl salt) [Example 318: ((N-Me)G)-IC+SRSLPPIC+IPD-OH (HCl- Salt)] | 22 | 610 |
| [tBuAla]GICSRSLP[Oic]I[Pen]IP-NH2 (disulfide 4-12; N-terminus assumed; SMILES CC[C@H](C)[C@H](NC(=O)CNC(=O)[C@@H](N)CC(C)(C)C)C(=O)N[C@H]1CSSC(C)(C)[C@@H](C(=O)N[C@H](C(=O)N2CCC[C@H]2C(N)=O)[C@@H](C)CC)NC(=O)[C@H]([C@@H](C)CC)NC(=O)[C@@H]2C[C@@H]3CCCC[C@@H]3N2C(=O)[C@@H]2CCCN2C(=O)[C@H](CC(C)C)NC(=O)[C@H](CO)NC(=O)[C@H](CCCNC(=N)N)NC(=O)[C@H](CO)NC1=O) [Example 322: ((tBu)A)-GIC+SRSLP-(Oic)-I-(Pen)+IP-NH2] | 22 | 150 |
| [Sar]ICSRSLP[(1R,3S,5R)‑2‑Azabicyclo(3.1.0)hexane‑3‑carboxylic acid]ICIPD-OH (disulfide 3-11) [Example 324: ((N-Me)G)-IC+SRSLP-((1R,3S,5R)-2-Azabicyclo[3.1.0]hexane-3-carboxylic acid)-IC+IPD-OH] | 23 | 72 |
| GICSRSLP[Oic]ICIPD-OH (disulfide 3-11; N-terminus assumed; SMILES CC[C@H](C)[C@H](NC(=O)CN)C(=O)N[C@H]1CSSC[C@@H](C(=O)N[C@H](C(=O)N2CCC[C@H]2C(=O)N[C@@H](CC(=O)O)C(=O)O)[C@@H](C)CC)NC(=O)[C@H]([C@@H](C)CC)NC(=O)[C@@H]2C[C@@H]3CCCC[C@@H]3N2C(=O)[C@@H]2CCCN2C(=O)[C@H](CC(C)C)NC(=O)[C@H](CO)NC(=O)[C@H](CCCNC(=N)N)NC(=O)[C@H](CO)NC1=O) [Example 323: GIC+SRSLP-(Oic)-IC+IPD-OH] | 6.96 | 560 |

Second part, the binder after the results:

| human MASP1 IC50 [1] [nM] | human MASP2 IC50 [2] [nM] | Binder |
| --- | --- | --- |
| 24 | 260 | [Sar]ICSRSLPPICI[Sar]D-OH (disulfide 3-11; N-terminus assumed; SMILES CC[C@H](C)[C@H](NC(=O)CNC)C(=O)N[C@H]1CSSC[C@@H](C(=O)N[C@H](C(=O)N(C)CC(=O)N[C@@H](CC(=O)O)C(=O)O)[C@@H](C)CC)NC(=O)[C@H]([C@@H](C)CC)NC(=O)[C@@H]2CCCN2C(=O)[C@@H]2CCCN2C(=O)[C@H](CC(C)C)NC(=O)[C@H](CO)NC(=O)[C@H](CCCNC(=N)N)NC(=O)[C@H](CO)NC1=O) [Example 329: ((N-Me)G)-IC+SRSLPPIC+I-((N-Me)G)-D-OH] |
| 25 | 690 | ICSRSLP[Oic]I[Pen]IP-NH2 (disulfide 2-10; N-terminus assumed; SMILES CC[C@H](C)[C@H](N)C(=O)N[C@H]1CSSC(C)(C)[C@@H](C(=O)N[C@H](C(=O)N2CCC[C@H]2C(N)=O)[C@@H](C)CC)NC(=O)[C@H]([C@@H](C)CC)NC(=O)[C@@H]2C[C@@H]3CCCC[C@@H]3N2C(=O)[C@@H]2CCCN2C(=O)[C@H](CC(C)C)NC(=O)[C@H](CO)NC(=O)[C@H](CCCNC(=N)N)NC(=O)[C@H](CO)NC1=O) [Example 336: IC+SRSLP-(Oic)-I-(Pen)+IP-NH2] |
| 24 | 610 | A[aIle]CSRSLPPICIPD-NH2 (disulfide 3-11; N-terminus assumed; SMILES CC[C@@H](C)[C@H](NC(=O)[C@H](C)N)C(=O)N[C@H]1CSSC[C@@H](C(=O)N[C@H](C(=O)N2CCC[C@H]2C(=O)N[C@@H](CC(=O)O)C(N)=O)[C@@H](C)CC)NC(=O)[C@H]([C@@H](C)CC)NC(=O)[C@@H]2CCCN2C(=O)[C@@H]2CCCN2C(=O)[C@H](CC(C)C)NC(=O)[C@H](CO)NC(=O)[C@H](CCCNC(=N)N)NC(=O)[C@H](CO)NC1=O) [Example 331: A-(allo-I)C+SRSLPPIC+IPD-NH2] |
| 25 | 180 | [tBuAla]ICSRSLP[Oic]I[Pen]IP-OH (disulfide 3-11; N-terminus assumed; SMILES CC[C@H](C)[C@H](NC(=O)[C@@H](N)CC(C)(C)C)C(=O)N[C@H]1CSSC(C)(C)[C@@H](C(=O)N[C@H](C(=O)N2CCC[C@H]2C(=O)O)[C@@H](C)CC)NC(=O)[C@H]([C@@H](C)CC)NC(=O)[C@@H]2C[C@@H]3CCCC[C@@H]3N2C(=O)[C@@H]2CCCN2C(=O)[C@H](CC(C)C)NC(=O)[C@H](CO)NC(=O)[C@H](CCCNC(=N)N)NC(=O)[C@H](CO)NC1=O) [Example 335: ((tBu)A)-IC+SRSLP-(Oic)-I-(Pen)+IP-OH] |
| 25 | 8.4 | {Butanoyl(3,3-Me2)}-ICSRS[tBuAla]PPI[NMeC]I-NH2 (disulfide 2-10; SMILES CC[C@H](C)[C@H](NC(=O)[C@@H]1CSSC[C@H](NC(=O)[C@@H](NC(=O)CC(C)(C)C)[C@@H](C)CC)C(=O)N[C@@H](CO)C(=O)N[C@@H](CCCNC(=N)N)C(=O)N[C@@H](CO)C(=O)N[C@@H](CC(C)(C)C)C(=O)N2CCC[C@H]2C(=O)N2CCC[C@H]2C(=O)N[C@@H]([C@@H](C)CC)C(=O)N1C)C(N)=O) [Example 333: (tert-Butylacetic acid)-IC+SRS-((tBu)A)-PPI-((N-Me)C)+I-NH2] |
